Laboratory results as given in patent US20210290727A1 (UNIVERSITY OF MARYLAND BALTIMORE, published 2021).

How the values were obtained:
[1] = target: T1, FLAG-tagged TSC1 (UniProt Q92574 1-1164); assay: NanoSPD (nanoTRAP) filopodia co-accumulation in COS-7 cells
T1 construct: also called pRK7-FLAG-TSC1; not shown: FLAG tag
T1 sequence (looked up): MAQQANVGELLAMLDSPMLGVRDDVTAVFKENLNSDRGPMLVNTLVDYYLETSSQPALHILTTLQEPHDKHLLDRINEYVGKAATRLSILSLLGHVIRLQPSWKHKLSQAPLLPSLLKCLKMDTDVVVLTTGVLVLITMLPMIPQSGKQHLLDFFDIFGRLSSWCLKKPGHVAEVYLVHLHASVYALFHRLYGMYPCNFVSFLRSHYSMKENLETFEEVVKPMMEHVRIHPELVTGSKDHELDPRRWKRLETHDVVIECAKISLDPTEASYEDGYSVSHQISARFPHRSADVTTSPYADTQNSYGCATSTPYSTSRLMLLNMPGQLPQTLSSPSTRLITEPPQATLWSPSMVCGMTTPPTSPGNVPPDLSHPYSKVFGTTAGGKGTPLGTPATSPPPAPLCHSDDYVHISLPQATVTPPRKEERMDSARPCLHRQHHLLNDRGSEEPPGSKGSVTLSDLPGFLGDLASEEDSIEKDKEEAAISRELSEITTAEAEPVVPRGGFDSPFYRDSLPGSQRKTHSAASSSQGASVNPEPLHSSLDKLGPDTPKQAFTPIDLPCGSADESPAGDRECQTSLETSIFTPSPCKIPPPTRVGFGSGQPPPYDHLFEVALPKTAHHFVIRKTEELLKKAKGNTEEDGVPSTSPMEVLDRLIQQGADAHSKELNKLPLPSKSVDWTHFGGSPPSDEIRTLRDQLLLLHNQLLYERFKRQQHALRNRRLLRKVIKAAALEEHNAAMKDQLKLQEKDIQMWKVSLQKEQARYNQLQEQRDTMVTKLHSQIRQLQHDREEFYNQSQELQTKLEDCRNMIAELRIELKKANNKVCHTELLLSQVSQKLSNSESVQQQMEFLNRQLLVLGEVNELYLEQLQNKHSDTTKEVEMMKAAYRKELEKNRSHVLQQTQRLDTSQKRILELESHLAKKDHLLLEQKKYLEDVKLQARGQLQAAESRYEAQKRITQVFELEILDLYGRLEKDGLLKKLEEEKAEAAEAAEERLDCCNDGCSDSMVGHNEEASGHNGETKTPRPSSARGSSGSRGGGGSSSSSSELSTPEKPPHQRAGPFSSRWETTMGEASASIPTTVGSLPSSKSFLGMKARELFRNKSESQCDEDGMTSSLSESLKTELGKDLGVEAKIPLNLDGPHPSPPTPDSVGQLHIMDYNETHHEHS

[2] = target: T2, FLAG-tagged TSC2 (UniProt P49815 1-1807, limits assumed); assay: as above
T2 construct: also called pRK7-FLAG-TSC2; not shown: FLAG tag
T2 sequence (P49815 whole entry): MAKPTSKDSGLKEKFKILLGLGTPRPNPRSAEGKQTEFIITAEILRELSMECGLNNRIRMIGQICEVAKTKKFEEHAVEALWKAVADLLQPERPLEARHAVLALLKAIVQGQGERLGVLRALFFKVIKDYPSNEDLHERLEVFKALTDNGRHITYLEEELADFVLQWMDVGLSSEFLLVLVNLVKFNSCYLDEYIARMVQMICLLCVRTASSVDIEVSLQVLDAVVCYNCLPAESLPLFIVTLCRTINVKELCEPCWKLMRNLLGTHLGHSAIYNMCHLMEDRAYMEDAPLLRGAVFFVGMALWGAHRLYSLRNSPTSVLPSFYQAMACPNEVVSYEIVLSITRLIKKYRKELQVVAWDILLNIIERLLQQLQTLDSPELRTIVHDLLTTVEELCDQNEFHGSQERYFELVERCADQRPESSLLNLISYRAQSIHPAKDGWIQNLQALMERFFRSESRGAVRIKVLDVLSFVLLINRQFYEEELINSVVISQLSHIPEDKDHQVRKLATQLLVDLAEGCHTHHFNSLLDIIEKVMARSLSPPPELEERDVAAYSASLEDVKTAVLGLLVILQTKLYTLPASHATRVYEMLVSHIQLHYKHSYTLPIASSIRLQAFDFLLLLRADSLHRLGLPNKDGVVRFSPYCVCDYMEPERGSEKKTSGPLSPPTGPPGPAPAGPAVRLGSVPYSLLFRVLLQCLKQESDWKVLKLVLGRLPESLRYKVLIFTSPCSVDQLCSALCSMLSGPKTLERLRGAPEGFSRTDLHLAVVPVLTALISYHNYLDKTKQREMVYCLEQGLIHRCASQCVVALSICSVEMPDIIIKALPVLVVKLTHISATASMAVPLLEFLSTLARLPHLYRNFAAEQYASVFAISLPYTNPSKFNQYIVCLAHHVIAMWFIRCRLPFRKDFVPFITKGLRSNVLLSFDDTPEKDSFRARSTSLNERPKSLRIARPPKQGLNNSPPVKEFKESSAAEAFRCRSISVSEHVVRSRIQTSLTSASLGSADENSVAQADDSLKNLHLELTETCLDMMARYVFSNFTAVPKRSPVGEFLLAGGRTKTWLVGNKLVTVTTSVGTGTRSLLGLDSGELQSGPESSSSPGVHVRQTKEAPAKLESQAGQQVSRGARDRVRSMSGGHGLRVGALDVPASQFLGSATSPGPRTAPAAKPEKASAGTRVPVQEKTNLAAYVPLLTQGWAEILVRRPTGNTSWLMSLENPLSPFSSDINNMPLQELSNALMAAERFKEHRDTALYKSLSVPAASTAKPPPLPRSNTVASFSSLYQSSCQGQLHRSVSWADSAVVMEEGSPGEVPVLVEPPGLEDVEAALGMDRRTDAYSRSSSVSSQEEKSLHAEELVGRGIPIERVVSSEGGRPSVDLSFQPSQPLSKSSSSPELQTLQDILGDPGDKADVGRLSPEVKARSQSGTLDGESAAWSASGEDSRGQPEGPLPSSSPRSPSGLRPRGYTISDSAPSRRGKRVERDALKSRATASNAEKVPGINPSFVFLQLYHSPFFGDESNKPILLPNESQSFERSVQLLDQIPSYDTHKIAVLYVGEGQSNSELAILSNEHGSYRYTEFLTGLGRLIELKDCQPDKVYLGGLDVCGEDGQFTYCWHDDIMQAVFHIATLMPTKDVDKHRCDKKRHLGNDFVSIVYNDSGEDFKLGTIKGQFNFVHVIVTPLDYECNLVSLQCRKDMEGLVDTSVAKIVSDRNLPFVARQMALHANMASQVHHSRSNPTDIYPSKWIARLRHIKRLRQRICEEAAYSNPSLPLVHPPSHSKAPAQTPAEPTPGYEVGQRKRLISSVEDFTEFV

binding result [1]: no binding
binding result [2]: no binding
B1: CIB2-eGFP (other)
chain: MGNKQTIFTEEQLDNYQDCTFFNKKDILKLHSRFYELAPNLVPMDYRKSPIVHVPMSLIIQMPELRENPFKERIVAAFSEDGEGNLTFNDFVDMFSVLCESAPRELKANYAFKIYDFNTDNFICKEDLELTLARLTKSELDEEEVVLVCDKVIEEADLDGDGKLGFADFEDMIAKAPDFLSTFHIRI
notes: Expressed in COS-7 cells as bait of the NanoSPD (nanoTRAP) assay; also called hCIB2-eGFP; GFP-hCIB2; not shown: eGFP tag
